T1: Biotinylated GAK (cyclin G-associated kinase) (Homo sapiens, biotin (biotinylated; site and way not stated))
T1 construct: Captured on a CAP chip with the Biotin CAPture kit; the general purification removes the His6 tag
T1 chain: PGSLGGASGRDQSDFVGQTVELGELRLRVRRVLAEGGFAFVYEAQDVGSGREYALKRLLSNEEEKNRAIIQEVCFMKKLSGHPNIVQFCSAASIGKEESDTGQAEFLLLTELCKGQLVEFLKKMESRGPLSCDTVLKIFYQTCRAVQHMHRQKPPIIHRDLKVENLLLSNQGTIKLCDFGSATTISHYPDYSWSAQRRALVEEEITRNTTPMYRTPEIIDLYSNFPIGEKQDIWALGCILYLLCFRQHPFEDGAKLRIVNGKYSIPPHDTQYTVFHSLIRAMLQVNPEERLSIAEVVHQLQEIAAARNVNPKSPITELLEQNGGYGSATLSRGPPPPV

B1: NbGAK_1 (VHH)
VHH: QVQLQESGGGLVQPGGSLRLSCSASGFKFNDSYMSWVRRVPGKGLEWVAGIWEDSSAAHYRDSVKGRFTISRDNAKNMLYLQMSSLKSDDTGLYYCVRRGYSGDYRPINNPSSQGTQVTVSS
notes: about 120 amino acids; structure of the complex with GAK deposited here (one of PDB 4C57, 4C58, 4C59); From a GAK-immunised dromedary, phage display vector pMECS, which adds an HA and a His tag
B2: NbGAK_4 (VHH)
VHH: QVQLQESGGGSVQAGGSLRLSCGASEYTSRMGWFRQAPGAEREGVACIHRQSNLSYYSDSVRGRFTISQDNAKTTAFLLMSSLKPEDTAIYYCATTTDCAAFVERATAITAGQGTQVTVSS
notes: about 120 amino acids; structures of the complex with GAK deposited here (among PDB 4C57, 4C58, 4C59); From a GAK-immunised dromedary, phage display vector pMECS, which adds an HA and a His tag

How the values were obtained:
[1] = molecular target: T1, Biotinylated GAK (cyclin G-associated …); test: SPR; same SPR experiment as the kinetic fit (biotinylated GAK on CAP chip, 25°C, 50 mM Tris/HCl pH 7.4, 150 mM NaCl); steady-state analysis; conditions: both partners purified
[2] = molecular target: T1, Biotinylated GAK (cyclin G-associated …); test: SPR; Biacore 3000, 25°C, 30 μl/min; biotinylated GAK captured on CAP chip (60-120 RU); nanobodies injected in serial 2-fold dilutions for 3 min; 50 mM Tris/HCl pH 7.4, 150 mM NaCl, 50 μM EDTA, 0.005% Tween 20; kinetic global fit, 1:1 Langmuir model; conditions: both partners purified

Binder	Kd [1] [nM]	Kd [2] [nM]
B1	60.3	59.9
B2	12.8	10.3
